Laboratory results: patent publication US20240209330A1 (10X GENOMICS, published 2024)

Biological target: T1, recombinant Phi29 polymerase-SpyTag fusion protein (Bacillus phage phi29 (Bacteriophage …, UniProt P03680 2-575))
T1 construct: Expressed in E. coli with an amino terminal polyhistidine/SUMO tag (N-His/SUMO); The tag was cleaved with ULP1; also called N-His/SUMO Phi29 polymerase-SpyTag fusion protein; Phi29 with K-linker-SpyTag003
T1 sequence: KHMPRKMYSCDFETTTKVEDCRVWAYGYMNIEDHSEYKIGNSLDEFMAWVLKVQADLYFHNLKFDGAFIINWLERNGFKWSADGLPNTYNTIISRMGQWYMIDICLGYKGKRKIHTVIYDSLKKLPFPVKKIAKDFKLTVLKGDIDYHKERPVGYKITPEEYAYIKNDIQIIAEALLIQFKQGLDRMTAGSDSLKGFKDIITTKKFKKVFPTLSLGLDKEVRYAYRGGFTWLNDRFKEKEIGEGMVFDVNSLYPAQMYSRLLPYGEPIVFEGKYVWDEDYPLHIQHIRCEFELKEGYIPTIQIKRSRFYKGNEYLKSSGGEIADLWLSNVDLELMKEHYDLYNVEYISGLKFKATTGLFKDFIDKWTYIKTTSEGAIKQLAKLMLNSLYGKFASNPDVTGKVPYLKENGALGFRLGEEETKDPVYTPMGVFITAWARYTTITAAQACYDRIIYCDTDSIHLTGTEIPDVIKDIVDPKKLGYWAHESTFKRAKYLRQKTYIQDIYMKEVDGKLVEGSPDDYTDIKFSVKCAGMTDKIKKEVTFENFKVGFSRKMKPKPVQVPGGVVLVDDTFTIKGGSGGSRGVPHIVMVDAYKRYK
Assay: co-expression in E. coli, nickel purification, SDS-PAGE (covalent SpyCatcher:SpyTag coupling)
Excerpt: N-His/SUMO recombinant Phi29 polymerase-SpyCatcher fusion protein and recombinant Phi29 polymerase-SpyTag fusion protein were expressed as described in Example 3. The soluble fraction was collected and run on a nickel column. The SDS-PAGE for the various fractions are shown in FIG. 9A (SpyCatcher) and FIG. 9B (SpyTag). The SUMO tag was cleaved using a recombinant Ubl-specific protease 1 (ULP1). Fractions were collected for pre- and post-cleavage of the N-His/SUMO tag, as shown in FIG. 10A (SpyCatcher) and FIG. 10B (SpyTag). Each elution fraction was collected as 1 mL aliquots using an 80-100% gradient of 1 M NaCl.
When the Phi29 polymerase-SpyCatcher fusion protein, the Phi29 polymerase-SpyTag fusion protein were co-expressed in E. coli, a dimer of fusion proteins (e.g., a dimer of Phi29 polymerase-SpyCatcher:Phi29 polymerase-SpyTag; comprising two Phi29 polymerase domains), with an approximate molecular weight of 147.974 kDa, was generated based on the protein coupling between SpyCatcher:SpyTag. (FIG. 10C, lane 3).

B1: recombinant Phi29 polymerase-SpyCatcher fusion protein (enzyme)
chain: KHMPRKMYSCDFETTTKVEDCRVWAYGYMNIEDHSEYKIGNSLDEFMAWVLKVQADLYFHNLKFDGAFIINWLERNGFKWSADGLPNTYNTIISRMGQWYMIDICLGYKGKRKIHTVIYDSLKKLPFPVKKIAKDFKLTVLKGDIDYHKERPVGYKITPEEYAYIKNDIQIIAEALLIQFKQGLDRMTAGSDSLKGFKDIITTKKFKKVFPTLSLGLDKEVRYAYRGGFTWLNDRFKEKEIGEGMVFDVNSLYPAQMYSRLLPYGEPIVFEGKYVWDEDYPLHIQHIRCEFELKEGYIPTIQIKRSRFYKGNEYLKSSGGEIADLWLSNVDLELMKEHYDLYNVEYISGLKFKATTGLFKDFIDKWTYIKTTSEGAIKQLAKLMLNSLYGKFASNPDVTGKVPYLKENGALGFRLGEEETKDPVYTPMGVFITAWARYTTITAAQACYDRIIYCDTDSIHLTGTEIPDVIKDIVDPKKLGYWAHESTFKRAKYLRQKTYIQDIYMKEVDGKLVEGSPDDYTDIKFSVKCAGMTDKIKKEVTFENFKVGFSRKMKPKPVQVPGGVVLVDDTFTIKGGSGGSVTTLSGLSGEQGPSGDMTTEEDSATHIKFSKRDEDGRELAGATMELRDSSGKTISTWISDGHVKDFYLYPGKYTFVETAAPDGYEVATPIEFTVNEDGQVTVDGEATEGDAHT
notes: Expressed in E. coli with an amino terminal polyhistidine/SUMO tag (N-His/SUMO); The tag was cleaved with ULP1; also called N-His/SUMO Phi29 polymerase-SpyCatcher fusion protein; Phi29 with K-linker-SpyCatcher003
  binding result: binds
